This is an account of results in patent publication US20250206834A1 (published 2025).

Where two headings read alike, the source gives them in different places.

Assay [1] concerns the target T1, human 4-1BB (human, UniProt Q07011 24-255). In words: FACS cell binding.
Assay [2] concerns the target T1, human 4-1BB. The assay is described as follows: FACS cell binding. The source holds these as a separate data set.
The target of assay [3] is T2, human CEACAM5 on cells (human, UniProt P06731 35-685).
T2 chain: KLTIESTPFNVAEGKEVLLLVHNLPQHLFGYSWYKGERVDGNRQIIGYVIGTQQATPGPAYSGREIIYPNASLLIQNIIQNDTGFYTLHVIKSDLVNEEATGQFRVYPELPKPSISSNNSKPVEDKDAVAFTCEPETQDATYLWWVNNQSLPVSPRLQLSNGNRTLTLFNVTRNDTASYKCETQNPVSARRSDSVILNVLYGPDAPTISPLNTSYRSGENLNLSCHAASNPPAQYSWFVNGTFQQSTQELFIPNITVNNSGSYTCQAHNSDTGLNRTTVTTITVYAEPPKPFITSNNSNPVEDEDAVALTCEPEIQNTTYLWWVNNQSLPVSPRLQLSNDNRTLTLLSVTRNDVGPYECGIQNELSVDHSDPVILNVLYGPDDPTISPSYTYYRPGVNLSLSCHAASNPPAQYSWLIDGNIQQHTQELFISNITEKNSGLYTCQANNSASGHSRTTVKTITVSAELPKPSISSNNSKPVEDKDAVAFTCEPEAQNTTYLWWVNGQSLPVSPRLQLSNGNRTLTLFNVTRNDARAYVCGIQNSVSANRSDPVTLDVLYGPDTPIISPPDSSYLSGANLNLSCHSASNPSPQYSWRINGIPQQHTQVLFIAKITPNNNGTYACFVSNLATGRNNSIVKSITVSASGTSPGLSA
In words: FACS cell binding; MKN-45 cells.

For assay [4], the target named is T2, human CEACAM5 on cells. The assay is described as follows: FACS cell binding; MKN-45 cells.
The target of assay [5] is T1, human 4-1BB. The assay is described as follows: FACS cell binding; plot key prints IMMU130-263-1-3.

T1 sequence (Q07011 24-255): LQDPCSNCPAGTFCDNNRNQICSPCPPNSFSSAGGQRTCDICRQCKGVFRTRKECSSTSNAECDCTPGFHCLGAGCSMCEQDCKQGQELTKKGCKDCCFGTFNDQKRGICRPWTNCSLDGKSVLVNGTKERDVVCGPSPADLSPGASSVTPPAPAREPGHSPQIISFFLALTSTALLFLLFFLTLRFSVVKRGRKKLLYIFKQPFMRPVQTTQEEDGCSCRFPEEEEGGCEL

B1: VV02-1SP (1)-73 huNb_1_3 (Fc fusion)
VHH: EVDLVESGGGLVQPGGSLRLSCAVSGFTFSSSAMSWARQAPGKEFEWVSSIYSSGKTYYVESVKGRFTISRDNAKNTVYLQMSSLRPEDTAVYYCATWKTLRVGVWDESDYWGQGTLVTVSS
Take B1: in the assay with human 4-1BB [1], a half-maximal response (EC50) required 0.37 nM.

B2: VV02-1LP-263 huNb_1_3 (Fc fusion)
VHH: EVQLLESGGGLVQPGGSLRLSCAASGFTFSSSAMSWARQTPGKGFEWVSGIYSGGSTYYTESVKDRFTISRDNSKNTVYLQMNSLKPEDTAVYYCATWGTLRFGVWAEYDHWGQGTQVTVSS
In the case of B2, the EC50 (commonly the concentration at which the effect is half-maximal) with human 4-1BB [2] is 0.53 nM.

B3: IMMU130-263-1-3_1 (bispecific antibody, V domains shown)
VH: EVQLVESGGGVVQPGRSLRLSCSASGFDFTTYWMSWVRQAPGKGLEWIGEIHPDSSTINYAPSLKDRFTISRDNAKNTLFLQMDSLRPEDTGVYFCASLYFGFPWFAYWGQGTPVTVSS
VL: DIQLTQSPSSLSASVGDRVTITCKASQDVGTSVAWYQQKPGKAPKLLIYWTSTRHTGVPSRFSGSGSGTDFTFTISSLQPEDIATYYCQQYSLYRSFGQGTKVEIK
VHH: EVQLVESGGGLVQPGGSLRLSCAASGFTFSSSAMSWARQAPGKGFEWVSGIYSGGSTYYTESVKDRFTISRDNSKNTVYLQMNSLKPEDTAVYYCATWGTLRFGVWAEYDHWGQGTQVTVSS
For B3, the response in the assay with human CEACAM5 on cells [3] was half-maximal at 7.34 nM (EC50).

B4: IMMU130-263-1-3 (bispecific antibody)
heavy (part 1 of 2): EVQLVESGGGVVQPGRSLRLSCSASGFDFTTYWMSWVRQAPGKGLEWIGEIHPDSSTINYAPSLKDRFTISRDNAKNTLFLQMDSLRPEDTGVYFCASLYFGFPWFAYWGQGTPVTVSS
heavy (part 2 of 2): GGGGSGGGGSGGGGSGGGGSEVQLLESGGGLVQPGGSLRLSCAASGFTFSSSAMSWARQTPGKGFEWVSGIYSGGSTYYTESVKDRFTISRDNSKNTVYLQMNSLKPEDTAVYYCATWGTLRFGVWAEYDHWGQGTQVTVSS
light: DIQLTQSPSSLSASVGDRVTITCKASQDVGTSVAWYQQKPGKAPKLLIYWTSTRHTGVPSRFSGSGSGTDFTFTISSLQPEDIATYYCQQYSLYRSFGQGTKVEIK
Consider B4, for which the EC50 with human CEACAM5 on cells [4] was 5.38 nM; in the assay with human 4-1BB [1], 0.58 nM; with human CEACAM5 on cells [3], 8.47 nM; with human 4-1BB [5] it was 1.23 nM.

B5: Labetuzumab (antibody, V domains shown)
VH: EVQLVESGGGVVQPGRSLRLSCSASGFDFTTYWMSWVRQAPGKGLEWIGEIHPDSSTINYAPSLKDRFTISRDNAKNTLFLQMDSLRPEDTGVYFCASLYFGFPWFAYWGQGTPVTVSS
VL: DIQLTQSPSSLSASVGDRVTITCKASQDVGTSVAWYQQKPGKAPKLLIYWTSTRHTGVPSRFSGSGSGTDFTFTISSLQPEDIATYYCQQYSLYRSFGQGTKVEIK
B5: the EC50 with human CEACAM5 on cells [4] amounted to 3.48 nM; with human CEACAM5 on cells [3], 5.31 nM.

B6: optimized bispecific antibody with 263 huNb-1-3_2 (bispecific antibody)
heavy (part 1 of 2): EVQLVESGGGVVQPGRSLRLSCSASGFDFTTYWMSWVRQAPGKGLEWIGEIHPDSSTINYAPSLKDRFTISRDNAKNTLFLQMDSLRPEDTGVYFCASLYFGFPWFAYWGQGTPVTVSS
heavy (part 2 of 2): GGGGSGGGGSGGGGSGGGGSEVQLVESGGGLVQPGGSLRLSCAASGFTFSSSAMSWARQAPGKGFEWVSGIYSGGSTYYTESVKDRFTISRDNAKNTVYLQMNSLKPEDTAVYYCATWGTLRFGVWAEYDHWGQGTLVTVSS
light: DIQLTQSPSSLSASVGDRVTITCKASQDVGTSVAWYQQKPGKAPKLLIYWTSTRHTGVPSRFSGSGSGTDFTFTISSLQPEDIATYYCQQYSLYRSFGQGTKVEIK
As to B6, the 50% effective concentration (EC50) in the assay with human CEACAM5 on cells [3] is 7.75 nM; with human 4-1BB [2] it was 1.2 nM.
